Results on three molecules are retold here after PMC6547619, “Development of an anti‐BAG3 humanized antibody for treatment of pancreatic cancer” (Molecular Oncology, 2019).

Residue numbers refer to the chain shown, from its start.

Common to all, as to conditions: both partners purified
For test [1], the target named is T1, E. coli rBAG3 (Abcam) (Homo sapiens (assumed; species of …, UniProt O95817).
T1 construct: BAG3 (BCL2-associated athanogene 3), recombinant, made in E. coli, bought from Abcam; Antigen of the SPR experiments only; no catalogue number is printed; also called antigen; source: bought: Abcam (E. coli rBAG3)
The test is described as follows: SPR; Biacore 2000, 25 °C; AC-2 captured on an anti-mouse Fc antibody covalently coupled on a CM5 chip; rBAG3 flowed at 0.39 to 200 nM; 2-state reaction model.

In test [2] the target is T1, E. coli rBAG3 (Abcam). The test is described as follows: SPR; Biacore 2000, 25 °C; humanized variants captured on an anti-human Fc antibody covalently coupled on a CM5 chip; rBAG3 flowed at variable concentrations. Background: SPR reads the build-up and loss of mass on a sensor chip optically.
For the next test, the target named is T2, murine rBAG3 (Mus musculus, UniProt Q9JLV1).
T2 construct: the cleavage released the full-length polypeptide; also called murine form of BAG3; not shown: biotinylated tag (AviTag, from the vector pAViTag-N N-His SUMO), N-terminal, cleaved; His, N-terminal, cleaved; SUMO, N-terminal, cleaved
The test is described as follows: immunoprecipitation; BAG3-H2L4 used to immunoprecipitate murine rBAG3; immunoblot with a rabbit polyclonal anti-BAG3. On the technique in general: Immunoblotting shows a protein as a band on a membrane.

Test [3] concerns the target T3, human recombinant BAG3 protein (Homo sapiens, UniProt O95817).
T3 construct: the cleavage released the full-length polypeptide; The ELISA methods say only 'human recombinant BAG3 protein'; For the flow cytometry it was labelled with FITC (FluoroTag FITC conjugation kit); also called rBAG3; full-length BAG3; not shown: biotinylated tag (AviTag, from the vector pAViTag-N N-His SUMO), N-terminal, cleaved; His, N-terminal, cleaved; SUMO, N-terminal, cleaved
The test can be described thus: ELISA; direct ELISA; plates coated with human recombinant BAG3 (1 μg/mL in PBS); humanized antibodies in scalar dilutions, 500 to 15.6 ng/mL; HRP anti-human IgG, O.D. 450 nm. On the technique in general: An ELISA detects its analyte on a solid surface through an enzyme-linked reagent.

T1 sequence (O95817 whole entry): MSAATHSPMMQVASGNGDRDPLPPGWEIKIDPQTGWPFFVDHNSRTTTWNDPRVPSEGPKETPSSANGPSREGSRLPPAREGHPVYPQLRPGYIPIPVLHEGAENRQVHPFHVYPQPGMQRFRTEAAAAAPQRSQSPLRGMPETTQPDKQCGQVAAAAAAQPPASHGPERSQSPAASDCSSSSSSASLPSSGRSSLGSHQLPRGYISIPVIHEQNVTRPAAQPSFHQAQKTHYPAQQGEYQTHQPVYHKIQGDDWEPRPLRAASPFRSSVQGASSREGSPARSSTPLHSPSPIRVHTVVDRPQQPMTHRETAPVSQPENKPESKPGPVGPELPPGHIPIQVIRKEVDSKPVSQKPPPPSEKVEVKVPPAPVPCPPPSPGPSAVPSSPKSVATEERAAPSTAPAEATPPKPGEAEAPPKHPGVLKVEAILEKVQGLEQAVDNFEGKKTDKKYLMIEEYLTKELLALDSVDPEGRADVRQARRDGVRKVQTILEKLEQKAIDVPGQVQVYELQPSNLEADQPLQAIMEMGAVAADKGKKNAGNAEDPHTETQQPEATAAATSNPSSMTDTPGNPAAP
T3 sequence (O95817 whole entry): as above
T2 sequence (Q9JLV1 whole entry): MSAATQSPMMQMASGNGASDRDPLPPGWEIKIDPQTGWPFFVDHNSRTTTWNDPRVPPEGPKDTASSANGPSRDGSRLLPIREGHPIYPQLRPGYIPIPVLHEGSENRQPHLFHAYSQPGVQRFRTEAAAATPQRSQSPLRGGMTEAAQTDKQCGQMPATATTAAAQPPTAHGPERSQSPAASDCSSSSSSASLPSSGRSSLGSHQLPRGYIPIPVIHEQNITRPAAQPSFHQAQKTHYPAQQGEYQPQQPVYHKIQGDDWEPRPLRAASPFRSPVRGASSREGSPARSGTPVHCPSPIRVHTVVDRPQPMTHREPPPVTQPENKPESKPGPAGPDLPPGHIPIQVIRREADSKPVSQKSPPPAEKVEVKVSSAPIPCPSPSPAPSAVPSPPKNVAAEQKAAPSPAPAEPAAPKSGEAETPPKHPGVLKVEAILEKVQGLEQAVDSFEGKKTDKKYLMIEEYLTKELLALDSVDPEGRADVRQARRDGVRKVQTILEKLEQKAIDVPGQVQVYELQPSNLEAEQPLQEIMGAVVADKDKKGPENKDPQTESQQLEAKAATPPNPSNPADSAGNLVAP

B1: murine anti-BAG3 antibody AC-2 (antibody, V domains shown)
VH: EVQLQQSGAELVKPGASVKLSCTASGFNIKDTYMYWVKQRPEQGLEWIGGVDPANGNTRYDPKFQGKATLTADTSSSTAYLQLSSLTSEDTAVYYCGRDGAMDYWGQGTSVTVSS
VL: DIVMSQSPSSLAVSVGEKVTMSCKSSQSLLYSSNQKNYLAWHQQKPGQSPKLLIYWASTRESGVPDRFTGSGSGTDFTLTISSVKAEDLAIYYCQQYYTYPLTFGAGTKLELK
notes: murine heavy chain; murine light chain; also called mAb AC-2; anti-BAG3 clone AC-2; source: mouse hybridoma clone AC-2 (supernatant in the peptide ELISA)
By Kd is commonly meant a measure of binding affinity in units of concentration. Low values mean higher affinity, high ones lower affinity. For the molecule B1, binding with E. coli rBAG3 (Abcam) [1] was characterised by a dissociation constant (Kd) of 14.4 nM.

B2: BAG3-H2L4 (antibody, V domains shown)
VH: QVQLVQSGAEVKKPGASVKVSCKASGFNIKDTYMYWVRQAPGQGLEWMGGVDPANGNTRYDPKFQGRVTLTRDTSTSTVYMELSSLRSEDTAVYYCGRDGAMDYWGQGTLVTVSS
VL: B1 VL with S5T, S9D, V15L, K18R, V19A, S49P, T69S, V84L, K85Q, L112I
notes: humanized heavy chain variant H2: CDRs of AC-2 (humanized light chain variant L4: CDRs of AC-2 (IgG1, kappa)); also called humanized anti-BAG3 antibody; humanized BAG3-H2L4 antibody; source: CHO, transiently transfected, purified from supernatant (Protein A FPLC), Evitria AG
In the case of B2, the binding result (in the test with E. coli rBAG3 (Abcam) [2]; in the test with murine rBAG3; in test [3]) was “binds” each time.

B3: BAG3-H4L2 (antibody, V domains shown)
VH: EVQLVQSGAEVKKPGATVKISCKVSGFNIKDTYMYWVQQAPGKGLEWMGGVDPANGNTRYDPKFQGRVTITADTSTDTAYMELSSLRSEDTAVYYCARDGAMDYWGQGTLVTVSS
VL: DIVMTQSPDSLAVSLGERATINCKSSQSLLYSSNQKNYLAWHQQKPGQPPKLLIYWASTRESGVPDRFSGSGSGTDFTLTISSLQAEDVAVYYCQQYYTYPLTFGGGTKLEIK
notes: humanized heavy chain variant H4: CDRs of AC-2 (humanized light chain variant L2: CDRs of AC-2 (IgG1, kappa)); source: CHO, transiently transfected, purified from supernatant (Protein A FPLC), Evitria AG
On to B3, for which the binding result (with E. coli rBAG3 (Abcam) [2]; in test [3]) was “binds” in each case.
